# Data taken from doi:10.1101/2025.10.27.684718.
# Target: hsKir6.2 (Q52E) subunit of the cryo-EM KATP construct (human) (UniProt Q14654)
# Experiment: cryo-EM structure
substance,measurement,value
hsKir6.2 (Q52E) subunit of the cryo-EM KATP construct (from UniProt Q14654 2-390) (natural protein),stoichiometry N,4
